First the molecules themselves.
B1: CPEB3 Ribozyme (parent)
chain: UAACAGGGGGCCACAGCAGAAGCGUUCACGUCGCAGCCCCUGUCAGAUUCUGGUGAAUCUGCGAAUUCUGCUGUAUAUCUC

In the series the parent is B1. As to the kind of experiment: self-cleavage, relative activity (ratio to wild type); higher = more cleavage; in vitro, sequencing. An outline of the steps: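 Relative activity compares each variant's cleaved/total read fraction with that of the unmutated ribozyme. To get these fractions, barcoded CPEB3 ribozyme libraries from rounds of error-prone PCR were transcribed with T7 RNA polymerase for 5 hours at 37°C and then given 15 min of DNase I treatment before EDTA was added. The RNAs were reverse transcribed with template switching and sequenced on Illumina, and DNA sequencing linked barcodes to variants. A minimum of 5 reads applied, and three batches were averaged.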
Take UAACAGGGGGCCACAGCAGAAGCGUUCACGUCGCAGCCCCUGUCAGAUACUGGUGAAUCUGCGAAUUCUGCUGUAUACCUC: the self-cleavage came out at 0.57.

In the case of UAACAGGGGGCCACAGCAGAAGCGUUCACGUCGCAGCCCCUGUCAGAUACUGGUGAAUCCGCGAAUUCUGCUGUAUAUCUC, the self-cleavage was determined as 0.32.

As for UAACAGGGGGCCACAGCAGAAGCGUUCACGUCGCAGCCCCUGUCAGAUACUGGUGAAUCAGCGAAUUCUGCUGUAUAUCUC, the self-cleavage came to 0.21. For UAACAGGGGGCCACAGCAGAAGCGUUCACGUCGCAGCCCCUGUCAGAUACUGGGGAAUCUGCGAAUUCUGCUGUAUAUCUC the value was 0.27. Regarding UAACAGGGGGCCACAGCAGAAGCGUUCACGUCGCAGCCCCUGUCAGAUACUGGAGAAUCUGCGAAUUCUGCUGUAUAUCUC, the self-cleavage is 0.81. For UAACAGGGGGCCACAGCAGAAGCGUUCACGUCGCAGCCCCUGUCAGAUACUGGCGAAUCUGCGAAUUCUGCUGUAUAUCUC the value was 0.54; for UAACAGGGGGCCACAGCAGAAGCGUUCACGUCGCAGCCCCUGUCAGAUAAUGGUGAAUCUGCGAAUUCUGCUGUAUAUCUC, 0.5. The same measure for UAACAGGGGGCCACAGCAGAAGCGUUCACGUCGCAGCCCCUGUCAGAUCCUGGUGUAUCUGCGAAUUCUGCUGUAUAUCUC: 0.48; for UAACAGGGGGCCACAGCAGAAGCGUUCACGUCGCAGCCCCUGUCAGAUCCUGGUGCAUCUGCGAAUUCUGCUGUAUAUCUC: 0.42.

For UAACAGGGGGCCACAGCAGAAGCGUUCACGUCGCAGCCCCUGUCAGAUCCUGGUGGAUCUGCGAAUUCUGCUGUAUAUCUC, the self-cleavage was determined as 1.04.

In the case of UAACAGGGGGCCACAGCAGAAGCGUUCACGUCGCAGCCCCUGUCAGAUCCUGGUGAAUCUGCGAAUUCUGCUGUAUGUCUC, the self-cleavage was found to be 0.45. For UAACAGGGGGCCACAGCAGAAGCGUUCACGUCGCAGCCCCUGUCAGAUCCUGGUGAAUCUGCGAAUUCUGCUGUAUUUCUC the value was 0.37. The same measure for UAACAGGGGGCCACAGCAGAAGCGUUCACGUCGCAGCCCCUGUCAGAUACUGGUGAAUCUGCGAAUUCUGGUGUAUAUCUC: 0.24.

Take UAACAGGGGGCCACAGCAGAAGCGUUCACGUCGCAGCCCCUGUCAGAUACUGGUGAAUCUGCGAAUUCUGUUGUAUAUCUC: the self-cleavage is 0.26. The same measure for UAACAGGGGGCCACAGCAGAAGCGUUCACGUCGCAGCCCCUGUCAGAUACUGGUGAAUCUGCGAAUUCUGCUGCAUAUCUC: 0.95; for UAACAGGGGGCCACAGCAGAAGCGUUCACGUCGCAGCCCCUGUCAGAUACUGGUGAAUCUGCGAAUUCUGCUGAAUAUCUC: 1.34; for UAACAGGGGGCCACAGCAGAAGCGUUCACGUCGCAGCCCCUGUCAGAUACUGGUGAAUCUGCGAAAUCUGCUGUAUAUCUC: 0.24. For UAACAGGGGGCCACAGCAGAAGCGUUCACGUCGCAGCCCCUGUCAGAUACUGGUGAAUCUGCGAACUCUGCUGUAUAUCUC the value was 0.38; for UAACAGGGGGCCACAGCAGAAGCGUUCACGUCGCAGCCCCUGUCAGAUCCUGGUGAAUCUGCGAAUUCUGCUGUCUAUCUC, 0.55. The same measure for UAACAGGGGGCCACAGCAGAAGCGUUCACGUCGCAGCCCCUGUCAGAUCCUGGUGAAUCUGCGAAUUCUGCUGUUUAUCUC: 0.62; for UAACAGGGGGCCACAGCAGAAGCGUUCACGUCGCAGCCCCUGUCAGAUCCUGGUGAAUCUGCGAAUUCUGCUGUGUAUCUC: 0.4.

Consider UAACAGGGGGCCACAGCAGAAGCGUUCACGUCGCAGCCCCUGUCAGAUACUGAUGAAUCUGCGAAUUCUGCUGUAUAUCUC, for which the self-cleavage is 0.79.

Take UAACAGGGGGCCACAGCAGAAGCGUUCACGUCGCAGCCCCUGUCAGAUACUGGUGAAUCUGCGAAUUCGGCUGUAUAUCUC: the self-cleavage worked out at 0.61. Consider UAACAGGGGGCCACAGCAGAAGCGUUCACGUCGCAGCCCCUGUCAGAUACUGGUGAAUCUGCGAAUUCCGCUGUAUAUCUC, for which the self-cleavage turned out to be 0.44.

As for UAACAGGGGGCCACAGCAGAAGCGUUCACGUCGCAGCCCCUGUCAGAUACUGGUGAAUCUGCGAAUUCAGCUGUAUAUCUC, the self-cleavage is 0.34.

Consider UAACAGGGGGCCACAGCAGAAGCGUUCACGUCGCAGCCCCUGUCAGAUACUGGUGAAUCUGCGAUUUCUGCUGUAUAUCUC, for which the self-cleavage is 0.47. The same measure for UAACAGGGGGCCACAGCAGAAGCGUUCACGUCGCAGCCCCUGUCAGAUACUGGUGAAUCUGCGAAUUCUGCUAUAUAUCUC: 1.28; for UAACAGGGGGCCACAGCAGAAGCGUUCACGUCGCAGCCCCUGUCAGAUACUGGUGAAUCUGCGAAUUCUACUGUAUAUCUC: 0.49; for UAACAGGGGGCCACAGCAGAAGCGUUCACGUCGCAGCCCCUGUCAGAUACUGGUGAAUCUGCGAAUUCUUCUGUAUAUCUC: 0.24.

On to UAACAGGGGGCCACAGCAGAAGCGUUCACGUCGCAGCCCCUGUCAGAUACUGGUGAAUCUGCGAAUUCUGCUGUAUAUCAC, for which the self-cleavage is 0.88. For UAACAGGGGGCCACAGCAGAAGCGUUCACGUCGCAGCCCCUGUCAGAUACUGGUGAAUCUGCGAAUUCUGCUGUAUAUCCC the value was 0.69. For UAACAGGGGGCCACAGCAGAAGCGUUCACGUCGCAGCCCCUGUCAGAUACUGGUGAAUCUGCGAAUUCUGCUGUAUAUCGC the value was 0.88; for UAACAGGGGGCCACAGCAGAAGCGUUCACGUCGCAGCCCCUGUCAGAUACUGGUGAAUCUGCGAAUACUGCUGUAUAUCUC, 0.57.

For the variant UAACAGGGGGCCACAGCAGAAGCGUUCACGUCGCAGCCCCUGUCAGAUACUGGUGAAUCUGCGAAUCCUGCUGUAUAUCUC, the self-cleavage was found to be 0.3.

For the origin of these results see the RNAGym collection of RNA variant scans (doi:10.1093/nar/gkz1192).
